Results: PMC4571291, “How Leiomodin and Tropomodulin use a common fold for different actin assembly functions” (Nature Communications, 2015)

B1: TL2_(ABS2) (domain or fragment)
chain: VIKPTQYKPVPDEEPNSTDVEETLERIKNNDPKLEEVNLNNIRNIPIPTLKAYAEALKENSYVKKFSLANTHADDSAAMAIAEMLKVNEHITNVNVESNFITGKGILAIMRALQHNTVLTELRFHNQRHIMGSQVEMEIVKLLKENTTLLRLGYHFELPGPRMSMTSILTRNMDKQRQKRLQEQKQQE
notes: human tropomodulin 1 residues 164-229; The junction was made with a silent NruI site; cloned in vector pTYB1; also called Tmod1-Lmod2 ABS2 hybrid construct
B2: TL1_(ABS2) (domain or fragment)
chain: VIKPTQYKPVPDEEPNSTDVEETLERIKNNDPKLEEVNLNNIRNIPIPTLKAYAEALKENSYVKKFALANTRADDHVAFAIAIMLKANKTITSLNLDSNHITGKGILAIFRALLQNNTLTELRFHNQRHICGGKTEMEIAKLLKENTTLLKLGYHFELAGPRMTVTNLLSRNMDKQRQKRLQEQRQAQ
notes: human tropomodulin 1 residues 164-229; human leiomodin 1 residues 365-486; The junction was made with a silent NruI site; cloned in vector pTYB1; also called Tmod1-Lmod1 ABS2 hybrid construct
B3: Lmod2_(ABS2) (domain or fragment)
chain: NGRNTESPAAIHPCGNPTVIEDALDKIKSNDPDTTEVNLNNIENITTQTLTRFAEALKDNTVVKTFSLANTHADDSAAMAIAEMLKVNEHITNVNVESNFITGKGILAIMRALQHNTVLTELRFHNQRHIMGSQVEMEIVKLLKENTTLLRLGYHFELPGPRMSMTSILTRNMDKQRQKRLQEQKQQE
notes: the limits 180-367 are printed for the construct of the same name made for cell expression; Cloned in vector pTYB1; also called isolated ABS2 of Lmod2

Each binder was assayed against actin (UniProt P68135 1-377) (assay: ITC; Tmod or Lmod construct in the syringe titrated into LatB-actin in the cell (LatB:actin 1.2:1); 20 mM HEPES pH 7.5, 100 mM NaCl, 0.2 mM ATP, 1 mM DTT; temperature and concentrations listed in the figures). Conditions: both partners purified.

Stoichiometry N, 2:
B1, B2, B3
